The target of one assay is T1, BST-1 (Homo sapiens, UniProt Q10588).
T1 construct: made in house; host or cells: baculovirus (pVL1393); virus made in Sf9, protein expressed in High five insect cells
T1 sequence (Q10588 33-297): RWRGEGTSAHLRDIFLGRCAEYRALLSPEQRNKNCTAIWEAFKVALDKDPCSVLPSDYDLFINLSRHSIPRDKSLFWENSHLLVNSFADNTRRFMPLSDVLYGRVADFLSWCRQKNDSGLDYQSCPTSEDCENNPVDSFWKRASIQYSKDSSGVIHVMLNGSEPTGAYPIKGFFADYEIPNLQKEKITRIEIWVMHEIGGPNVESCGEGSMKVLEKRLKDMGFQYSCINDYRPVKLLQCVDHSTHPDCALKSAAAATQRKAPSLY
Description: Inhibition of ADP-ribosyl cyclase activity of BST-1 (NGD method). Format: biochemical. Particulars: DTT 10 mM. The source says:
The fact that the peptide thus obtained inhibits ADP-ribosyl cyclase activity of BST-1 may be identified by comparing the ADP-ribosyl cyclase activity when measured in the absence of the peptide with the activity in the presence of the peptide. As previously mentioned, NAD is converted to cADP-ribose by ADP-ribosyl cyclase activity of BST-1, and therefore, the activity may be measured by allowing to react NAD with BST-1 and then quantitatively determining NAD and cADP-ribose after separation of them by anion-exchange chromatography (FEBS letters, 356, 244, 1994). Alternatively, nicotinamide guanine dinucleotide (NGD) may be used as a substrate instead of NAD, which is converted to cyclic guanosine-5′-diphosphate-ribose cGDP-ribose that can be fluorimetrically measured with an excitation wavelength of 300 nm and an emission wavelength of 410 nm, whereby the velocity of the formation of cGDP-ribose reflects ADP-ribosyl cyclase activity (J. Biol. Chem., […], 30260, 1994).
The abscissa is time course and the ordinate is fluorescence intensity. Purified BST-1 (4 μg/ml) was mixed with NGD (300 μM), and the mixture was allowed to react at 25° C. for 300 seconds, and then the synthetic peptide SNP-1 was added thereto at the concentration of 20 μM.
Inhibition of ADP-ribosyl cyclase activity of BST-1 by synthetic peptides was tested by means of the NGD method previously mentioned. […]

Assay [1] addresses T2, soluble human bone marrow stromal cell antigen-1 (BST-1) (human, UniProt Q10588 33-297).
T2 construct: range 1-297; Expressed with baculovirus in High five insect cells, purified to 95% or more; The construct encodes codons 1-297; also called purified BST-1; soluble BST-1
T2 sequence (looked up): T1 sequence (Q10588 33-297)
Description: Biacore SPR, BST-1 amine-coupled on CM5, equilibrium values at 400-2000 nM peptide, Scatchard plot. The protocol: BST-1 was immobilized at 2800 resonance unit (RU) on the sensor chip CM5 of a bio-sensor for analyzing protein interactions, BIACORE (Biacore K.K.), by means of an amine coupling method. The synthetic peptides were passed through the sensor chip at the flow rate of 40 µl/min at the concentration of from 400 nM to 2000 nM. Equilibrium binding value was obtained for each concentration. Based on the equilibrium binding values, dissociation constants were calculated by means of Scatchard plot method (Hulme E. C.; Receptor-binding studies, a brief outline, in Receptor Biochemistry: A Practical Approach, 303–315, IRL press, 1990).

The next assay addresses T3, bovine serum albumin (bovine, UniProt P02769 25-607).
T3 construct: also called BSA
Description: phage ELISA, well coated with BSA alone.

Where no end group is shown, it is not given here. The star is where a group is joined. Biotin = O=C1N[C@H]2[C@H](CS[C@H]2CCCCC(=O)*)N1

T3 sequence (P02769 25-607 limits assumed): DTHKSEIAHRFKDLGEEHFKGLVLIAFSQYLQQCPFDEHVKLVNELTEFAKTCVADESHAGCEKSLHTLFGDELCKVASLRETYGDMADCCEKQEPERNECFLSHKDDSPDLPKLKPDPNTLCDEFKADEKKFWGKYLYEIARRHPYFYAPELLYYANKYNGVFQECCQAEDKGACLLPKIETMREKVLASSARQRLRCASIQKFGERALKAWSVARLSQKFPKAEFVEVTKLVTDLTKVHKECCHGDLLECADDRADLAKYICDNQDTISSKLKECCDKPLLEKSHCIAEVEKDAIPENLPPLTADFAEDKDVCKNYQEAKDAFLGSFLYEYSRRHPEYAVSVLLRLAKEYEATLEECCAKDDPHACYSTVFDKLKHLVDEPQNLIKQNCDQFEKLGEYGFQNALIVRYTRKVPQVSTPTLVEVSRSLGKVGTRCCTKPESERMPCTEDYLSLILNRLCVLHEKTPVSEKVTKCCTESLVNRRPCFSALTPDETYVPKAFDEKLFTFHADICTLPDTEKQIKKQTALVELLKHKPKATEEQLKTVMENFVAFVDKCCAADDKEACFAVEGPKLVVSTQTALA

For the molecule `O[C@@H](CS)[C@@H](O)CS` [DTT], on BST-1, the “ADP-ribosyl cyclase activity of BST-1 after addition of reducing agent” value is listed as “complete disappearance”.

Take HSQISGKYQRYLKDAK(Biotin) [SNPb-1 (SNP-1 with an additional C-terminal Lys carrying biotin)]: the affinity in assay [1], expressed as Kd, was 810 nM.

B1: synthetic peptide SNP-1 (peptide)
peptide: HSQISGKYQRYLKDA
notes: 15-residue synthetic peptide, purity 95% or more; also called prototype SNP-1; original SNP-1
In the case of B1, in assay [1], the Kd is 510 nM.

On to {Sulfo‑NHS‑LC‑Biotin}-HSQISGKYQRYLKDA [bSNP-1 (SNP-1 biotinylated at the N-terminal)], for which the Kd in assay [1] was 530 nM.

B2: phage SN-16 (phage expressing the peptide defined by SEQ ID NO: 2) (peptide)
peptide: DDVVYTNIHKWGRRE
notes: not shown: phage coat protein of the Fuse 5 vector to which the peptide is fused; not specified
Consider B2, for which the binding result with bovine serum albumin is listed as “no binding”.

B3: phage SN-1 (phage expressing the peptide defined by SEQ ID NO: 1) (peptide)
peptide: HSQISGKYQRYLKDA
notes: as for B2
For the molecule B3, in the assay with bovine serum albumin, the binding result is “no binding”.
